Patent US20100077492A1 (UNIVERSITY OF MASSACHUSETTS, published 2010)

B1: ^32P-labelled XPG-HMK (human XPG with a C-terminal heart muscle kinase recognition sequence tag) (enzyme)
chain: MGVQGLWKLLECSGRQVSPEALEGKILAVDISIWLNQALKGVRDRHGNSIENPHLLTLFHRLCKLLFFRIRPIFVFDGDAPLLKKQTLVKRRQRKDLASSDSRKTTEKLLKTFLKRQAIKTAFRSKRDEALPSLTQVRRENDLYVLPPLQEEEKHSSEEEDEKEWQERMNQKQALQEEFFHNPQAIDIESEDFSSLPPEVKHEILTDMKEFTKRRRTLFEAMPEESDDFSQYQLKGLLKKNYLNQHIEHVQKEMNQQHSGHIRRQYEDEGGFLKEVESRRVVSEDTSHYILIKGIQAKTVAEVDSESLPSSSKMHGMSFDVKSSPCEKLKTEKEPDATPPSPRTLLAMQAALLGSSSEEELESENRRQARGRNAPAAVDEGSISPRTLSAIKRALDDDEDVKVCAGDDVQTGGPGAEEMRINSSTENSDEGLKVRDGKGIPFTATLASSSVNSAEEHVASTNEGREPTDSVPKEQMSLVHVGTEAFPISDESMIKDRKDRLPLESAVVRHSDAPGLPNGRELTPASPTCTNSVSKNETHAEVLEQQNELCPYESKFDSSLLSSDDETKCKPNSASEVIGPVSLQETSSIVSVPSEAVDNVENVVSFNAKEHENFLETIQEQQTTESAGQDLISIPKAVEPMEIDSEESESDGSFIEVQSVISDEELQAEFPETSKPPSEQGEEELVGTREGEAPAESESLLRDNSERDDVDGEPQEAEKDAEDSLHEWQDINLEELETLESNLLAQQNSLKAQKQQQERIAATVTGQMFLESQELLRLFGIPYIQAPMEAEAQCAILDLTDQTSGTITDDSDIWLFGARHVYRNFFNKNKFVEYYQYVDFHNQLGLDRNKLINLAYLLGSDYTEGIPTVGCVTAMEILNEFPGHGLEPLLKFSEWWHEAQKNPKIRPNPHDTKVKKKLRTLQLTPGFPNPAVAEAYLKPVVDDSKGSFLWGKPDLDKIREFCQRYFGWNRTKTDESLFPVLKQLDAQQTQLRIDSFFRLAQQEKEDAKRIKSQRLNRAVTCMLRKEKEAAASEIEAVSVAMEKEFELLDKAKGKTQKRGITNTLEESSSLKRKRLSDSKGKNTCGGFLGETCLSESSDGSSSEDAESSSLMNVQRRTAAKEPKTSASDSQNSVKEAPVKNGGATTSSSSDSDDDGGKEKMVLVTARSVFGKKRRKLRRARGRKRKTRRASV
modifications: ^32P-labeled at the heart muscle kinase (HMK) recognition tag RRASV
notes: The tagged form was used only in the far western and slot blot assays, as the labelled probe in solution; also called ^32P-labeled XPG with a heart muscle kinase (HMK) tag

Experiments:
[1] = biological target: T1, human PC4 protein (full length wild type) (human, UniProt P53999 1-127); assay: far western: ^32P-labelled XPG-HMK probe on PC4 transferred from SDS-PAGE
T1 construct: Full length wild type PC4 expressed in E. coli BL21(DE3) and purified by the methods of Ge et al; It was immobilised on the membrane, denatured after SDS-PAGE in the far western and native in the slot blot
Description: (§1) For “far western” analysis, human PC4 protein (1.5 μg), human Nth1 protein (2.1 μg) and E. coli EndoIII (3 μg) were separated on SDS-PAGE (pre-cast 4-20% gel, BioRad), transferred to a PVDF membrane, and stained with Ponceau S to visualize the proteins on the membrane. The membrane was then blocked with a blocking buffer (25 mM Hepes-KOH (pH 7.7), 25 mM NaCl, 5 mM MgCl₂, 1 mM DTT, 1% nonfat milk and 0.1% NP-40) for 2 hours at 4° C. and probed overnight at 4° C. on a rocker with blocking buffer containing 150 mM KCl and ³²P-labeled XPG with a heart muscle kinase (HMK) tag. The membrane was washed with washing buffer (25 mM Hepes-KOH (pH 7.7), 25 mM NaCl, 150 mM KCl, 5 mM MgCl2, 1 mM DTT, 1% nonfat milk and 0.5% NP-40), and interactions were visualized by both phosphorimager and autoradiography. For slot-blot analysis 1 μg each of PC4, hNth1 and EndoIII were applied to a nitrocellulose membrane, and the membrane was processed as above.
(§2) Since Sub1 evidently functions in a pathway involving Rad2, we tested the possibility of direct interaction between the human PC4 and XPG proteins by “far western” analysis. To test PC4-XPG interaction, ³²P-labeled XPG was used as a probe for PC4 transferred onto a membrane from an SDS-PAGE gel. […]

[2] = biological target: B1; assay: far western: ^32P-labelled XPG-HMK probe on proteins transferred from SDS-PAGE
Description: as §1, §2

binding result [1]	Binder	binding result [2]
binds	B1	–
–	E. coli Endo III (enzyme, UniProt P0AB83 1-211, looked up, Negative control, immobilised on the membrane) MNKAKRLEILTRLRENNPHPTTELNFSSPFELLIAVLLSAQATDVSVNKATAKLYPVANTPAAMLELGVEGVKTYIKTIGLYNSKAENIIKTCRILLEQHNGEVPEDRAALEALPGVGRKTANVVLNTAFGWPTIAVDTHIFRVCNRTQFAPGKNVEQVEEKLLKVVPAEFKVDCHHWLILHGRYTCIARKPRCGSCIIEDLCEYKEKVDI	no binding (tested: 3 µg EndoIII on the membrane)
